Test results taken from publication PMC4364448.

Biological target: Arp2/3 complex (bovine) (UniProt A7MB62)
Assay: ITC

WCA_(WAVE) (domain or fragment)
fold lower affinity than N-WASP WCA, site-1: 2 fold
fold lower affinity than N-WASP WCA, site-2: 6 fold
stoichiometry N: 2

Human GMFγ (from UniProt O60234 1-142) (natural protein)
Kd: 200 nM

WCA_(N-WASP) (domain or fragment)
Kd site-1: 20 nM
Kd site-2: 182 nM
stoichiometry N: 2
